Experimental data from paper PMC8284666, “Biochemical characterization of protease activity of Nsp3 from SARS-CoV-2 and its inhibition by nanobodies” (PLoS ONE, 2021).

Molecular target: T1, Biotinylated AVI-PLpro wild type (SARS-CoV-2 Nsp3 743-1072) (SARS-CoV-2, Wuhan-Hu-1 (MN908947.3), UniProt P0DTD1, biotin (BirA biotinylation of the Avi tag))
T1 construct: also called biotinylated PLpro; WT PLpro^CoV-2
Assay: flow cytometry on cells
Details: one partner purified

| Binder | binding result |
| --- | --- |
| NbSL17, displayed on yeast (VHH) VHH: QVQLQESGGGLVQAGGSLRLSCAASGSISDSTRMGWYRQAPGKERELVATITYGSTTYYADSVKGRFTISRDNAKNTVYLQMNSLKPEDTAVYYCAAFDENVYVYRPYHYYWGQGTQVTVSS | binds |
| NbSL19, displayed on yeast (VHH) VHH: QVQLQESGGGLVQAGGSLRLSCAASGSIFFQAYMGWYRQAPGKERELVAGIDAGTTTYYADSVKGRFTISRDNAKNTVYLQMNSLKPEDTAVYYCAAEYFWNYNPYRGTNSTHPYWGQGTQVTVSS | binds |
